From the supplement of paper PMC10724198
± gives the standard deviation of the averaged measurements.

Tested on: Saccharomyces cerevisiae
Assay: protein stability index of tFT-peptide fusion (C-terminal peptide) (PSI (0-1 scale)); higher = more stable (slower turnover)
Settings: genetic background: wild type; temperature: 30 C
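Further: PSI is a weighted mean of sequencing reads over stability bins, variants kept only with over 10 reads, mCherry proximal and sfGFP distal, peptide attached via GGGS linker.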

Sequence	protein stability index
LSSFFLLPCLSS	0.576 ± 0.021
LSSFHCIVTVKD	0.652 ± 0.028
LSSFPLPFPPPL	0.659 ± 0.013
LSSPPSPRAFLP	0.723 ± 0.065
LSSSVAPLIPPP	0.767 ± 0.031
LSSVFLGICIMS	0.543 ± 0.11
LSSWPFLPLVRI	0.593 ± 0.02
LSTPPLPRPYPP	0.654 ± 0.038
LSTPSLFTPFRA	0.715 ± 0.024
LSVMLEGLFGLL	0.662 ± 0.018
LSVWPHSVPSFV	0.659 ± 0.036
LSYQTGTTRTRK	0.728 ± 0.056
LTFSPPERLSFH	0.737 ± 0.12
LTGGNPLTQDGD	0.689 ± 0.019
LTHLADVRSVLS	0.708 ± 0.043
LTHLLTSHTNII	0.746 ± 0.081
LTNGQRSLCLCS	0.6537 ± 0.0048
LTPNSLCSFLSR	0.702 ± 0.013
LTPSLPLPPSET	0.654 ± 0.047
LTRKTPQKRAPQ	0.704 ± 0.013
LTRLETSNITAI	0.679 ± 0.041
LTSVQFNKWTIE	0.714 ± 0.047
LTTMSPGLLRRP	0.639 ± 0.065
LTTRTQTDDRKR	0.682 ± 0.0077
LTVRVTSQPFDL	0.658 ± 0.015
LVCTLLGAASAP	0.708 ± 0.033

Sequence	protein stability index
LVFAAGCVGGVR	0.633 ± 0.021
LVGGGGGVGSLV	0.628 ± 0.042
LVGGGVGVGSLV	0.66 ± 0.011
LVGRAITTLPPV	0.66 ± 0.037
LVGSRGCGKIVW	0.6 ± 0.026
LVIWSFYSEGIV	0.52 ± 0.017
LVLFFPMLRIRI	0.515 ± 0.041
LVLGFDVTPGTF	0.728 ± 0.017
LVLHWPSPREAL	0.713 ± 0.071
LVLTPPLLSLYP	0.683 ± 0.0083
LVPLFVLPYGHP	0.768 ± 0.073
LVQCSAISARRF	0.735 ± 0.026
LVRFTDPIPQQA	0.615 ± 0.026
LVRGFVDKYVIS	0.652 ± 0.01
LVRLRRSLRLFL	0.539 ± 0.037
LVRPRFSPPPTP	0.6882 ± 0.0057
LVRVLHRSHASA	0.685 ± 0.031
LVSPPSPPLPPP	0.728 ± 0.12
LVVSHDSSLMMR	0.7363 ± 0.0045
LVVTTLQSVVLG	0.559 ± 0.085
LVVVRTGPPRWY	0.669 ± 0.0073
LVWLGCGLGGLC	0.745 ± 0.054
LWCCVFGLPSRG	0.696 ± 0.072
LWCDTRIDMSRH	0.737 ± 0.038
LWCFVVGEVNGV	0.6209 ± 0.0034
LWFCGLWPRVSG	0.6384 ± 0.00068

Sequence	protein stability index
LWGPGAVWGRGR	0.699 ± 0.049
LWGPGGVWGRGR	0.697 ± 0.05
LWIVLFRKCELP	0.592 ± 0.018
LWKVVAPRDESP	0.67 ± 0.023
LWPLPSASVILL	0.515 ± 0.12
LWPYSRYSFSPP	0.726 ± 0.02
LWSICWNRVFPF	0.6973 ± 0.0017
LWVGSGGARCVV	0.624 ± 0.03
LYGLFRIADVRR	0.652 ± 0.15
LYGSIPFGCRIL	0.94 ± 0.018
LYPLTPWYVVPP	0.715 ± 0.11
LYSFSIPPSLGS	0.735 ± 0.085
LYSPPPPPIPSP	0.7046 ± 0.0067
LYWSGFCPVFWG	0.7164 ± 0.0027
MANYIVEGGEPY	0.723 ± 0.025
MCVGGGCGRGGA	0.719 ± 0.14
MCVGSLMHKLRW	0.6988 ± 0.0043
MDDIAAYTGSCT	0.661 ± 0.032
MDTYIQKKKYIK	0.69 ± 0.0099
MENEDYIVRKKK	0.73 ± 0.054
MFGTVVFGAHRR	0.749 ± 0.015
MFVTQTGNRCKA	0.668 ± 0.018
MGFARDVYGSVC	0.702 ± 0.022
MGGTGRGGRREI	0.667 ± 0.04
MGGVGGLCGMWA	0.683 ± 0.036
MGPLHVMLQRAR	0.805 ± 0.16

Sequence	protein stability index
MGVCLGPPTVWR	0.684 ± 0.043
MIKDVYIDNDNV	0.694 ± 0.02
MLFWDVGLLVFN	0.579 ± 0.049
MLFWPPPSLRMP	0.701 ± 0.0083
MLPTPSPPRPPF	0.698 ± 0.021
MNFCLGVFVDLA	0.6857 ± 0.0037
MRECGLSEARGG	0.651 ± 0.021
MRKGNGGGPRRR	0.728 ± 0.019
MRLTLGSHMAYY	0.69 ± 0.082
MTRGRWAKKTAK	0.688 ± 0.038
MVKLGVGREEVV	0.655 ± 0.018
MVVEGLERWGRV	0.723 ± 0.045
MWPCRVRWLDHW	0.73 ± 0.034
MYASVGAIHPRL	0.738 ± 0.074
NACLRNPTTKGG	0.694 ± 0.086
NAFSHSASRVIS	0.682 ± 0.016
NAGNDVFSLDIC	0.683 ± 0.034
NCRGNLDFGPLV	0.727 ± 0.042
NDLRRAVSARYV	0.676 ± 0.032
NFGLYGAPFTLG	0.665 ± 0.041
NFNRKTNGVFRS	0.693 ± 0.059
NFRILIKKRGDE	0.643 ± 0.071
NGAGRGMVGGCG	0.666 ± 0.079
NGLACGSLTLLK	0.6738 ± 0.0019
NGPDAKTIEVRQ	0.658 ± 0.048
NGRTYIDEESKI	0.745 ± 0.16

Sequence	protein stability index
NGVLRPMATGAP	0.666 ± 0.039
NGYASLGGEPKR	0.7576 ± 0.0041
NIHKNKKKGLKE	0.686 ± 0.0088
NIKEKEIKRQVR	0.693 ± 0.051
NIKKLSHRTRRI	0.857 ± 0.2
NINKINKKCTRV	0.645 ± 0.055
NKEYSLIIKTHN	0.61529 ± 0.00011
NKISRDAVWNCR	0.657 ± 0.053
NKKDKKMNKDKR	0.6791 ± 0.0014
NKNKKKKEKKSR	0.725 ± 0.12
NKPRSYRVDKRQ	0.615 ± 0.015
NKRIRKIKKKCK	0.701 ± 0.065
NKRSNIKVSDQR	0.691 ± 0.03
NKTKKKRTEPQP	0.6616 ± 0.005
NKTNSKKSIFTV	0.703 ± 0.01
NLAVSFIVGGLW	0.747 ± 0.026
NLCPLPPPLLTS	0.675 ± 0.035
NLINPCRRPPVP	0.648 ± 0.088
NLRFTTSCNGPL	0.649 ± 0.018
NLRGPEYVKRTD	0.677 ± 0.021
NLSYPSCDPPAT	0.5836 ± 0.0032
NNLSPLPGPSLI	0.713 ± 0.018
NNSLKTTMVATK	0.58 ± 0.065
NNYPHSEKCLKE	0.643 ± 0.009
NPPALPPFSPSP	0.708 ± 0.01
NPPCPYPPLRPR	0.595 ± 0.044

Sequence	protein stability index
NPVYSFRAHRLG	0.5128 ± 0.0037
NRDIYQNWPKRK	0.831 ± 0.14
NRGLYNLYRMSR	0.645 ± 0.0027
NRHGRALPSLEA	0.644 ± 0.014
NRNKKTKKKVII	0.6697 ± 0.0062
NRRVSGPLCMQE	0.687 ± 0.054
NRSKNKKIIREI	0.6341 ± 0.0056
NRTRFLSLDTRP	0.719 ± 0.023
NSAPPPPHTPPP	0.699 ± 0.018
NSSADRSTNPTQ	0.649 ± 0.019
NSSLSLPFGPPP	0.69 ± 0.011
NSTPTTPPIPHQ	0.702 ± 0.091
NSTTNVKTQHTL	0.731 ± 0.023
NSTTQKKEQKQI	0.711 ± 0.043
NSVMSRGCGNRG	0.626 ± 0.044
NTNSTRSDNVFD	0.622 ± 0.011
NTPHSRSLRSNH	0.695 ± 0.017
NTTTTKNRTPKR	0.6952 ± 0.0063
NVACNGKGEQVL	0.7268 ± 0.0011
NVCICSIRNATN	0.804 ± 0.11
NVENSNTAGKGV	0.689 ± 0.024
NVKPGKIRRRRG	0.667 ± 0.14
NVLVSPFVPLSF	0.724 ± 0.0089
NWAPRCCIGNII	0.669 ± 0.12
NWIIARFVPIGL	0.685 ± 0.041
NYLLYSRRSVRV	0.532 ± 0.04

Sequence	protein stability index
PACPLISPIGRF	0.673 ± 0.05
PADLCPPGSLSP	0.683 ± 0.01
PADSRGNSPPPQ	0.675 ± 0.055
PAHPGRPPILGS	0.597 ± 0.036
PAHRRLLPWPPA	0.71 ± 0.14
PAIPPPPTAAPT	0.678 ± 0.087
PAKNKKKKKNRK	0.6911 ± 0.0031
PALASHLAPLDP	0.6958 ± 0.0049
PALPAPFLSSPH	0.6737 ± 0.00099
PALPFPPLTAFH	0.683 ± 0.036
PAPDATQRVRSQ	0.645 ± 0.0089
PAPLPFPLPTSL	0.757 ± 0.015
PAPPAPTHAPPL	0.683 ± 0.11
PAPPCPGTSPFP	0.7055 ± 0.001
PAPPFPPRPSPF	0.673 ± 0.056
PAPPHPRIPSPT	0.669 ± 0.073
PAPPLPLTPPPL	0.788 ± 0.014
PAPPPLPPHSLP	0.718 ± 0.024
PAPPPPPPPLYP	0.718 ± 0.013
PAPPPPPPTPPP	0.646 ± 0.039
PAPPPPPPTTVL	0.691 ± 0.03
PAPPPRDLPTPP	0.664 ± 0.007
PAPPPRRPPAPP	0.689 ± 0.017
PAPPPSSPRSIH	0.674 ± 0.032
PAPPSLAAPRGT	0.663 ± 0.0092
PARLPSPSHPAS	0.776 ± 0.063

Sequence	protein stability index
PARPLSRPPLPP	0.72 ± 0.052
PARTSAPPSPLI	0.686 ± 0.0075
PASEVLFMEFVT	0.753 ± 0.026
PASIVPPPPVPL	0.777 ± 0.13
PASPFPQTCPPP	0.737 ± 0.074
PASPHPPSPSPL	0.604 ± 0.022
PASPPPAPRPPP	0.65 ± 0.0081
PASPRDPLPRLP	0.764 ± 0.12
PASYSAPVSLFI	0.7035 ± 0.002
PATPPFSLPPPH	0.669 ± 0.025
PAVCIPLPARQL	0.743 ± 0.026
PCIRRRSISTLP	0.775 ± 0.11
PCLGATSNTGRY	0.732 ± 0.045
PCMLSEATQQAH	0.668 ± 0.049
PCPPLPGILSSL	0.674 ± 0.035
PCWPARVWVSFL	0.504 ± 0.013
PDASRRVPPPPD	0.663 ± 0.066
PDDGLSAPPAAF	0.722 ± 0.14
PDFPPSRTPPEF	0.624 ± 0.022
PDGPSIVVPGQG	0.678 ± 0.017
